From the supplement of paper PMC11316812
± gives the standard deviation of the averaged measurements.

Legend:
[1] = system: hTERT-HMEC; experiment: percentage of EdU-negative (G0-arrested) nuclei per well, 72 h; higher = more G0 arrest; details: reference: sequence is the full UniProt precursor, the tested protein was the secreted form or ectodomain
[2] = system: MCF7; experiment: as above; details: reference: sequence is the full UniProt precursor, the tested protein was the secreted form or ectodomain
[3] = protein concentration 0.00925 µM
[4] = protein concentration 0.0925 µM
[5] = protein concentration 0.03125 µM
[6] = protein concentration 0.3125 µM
[7] = protein concentration 0.0307925 µM
[8] = protein concentration 0.307925 µM
[9] = protein concentration 0.0225 µM
[10] = protein concentration 0.0357143 µM
[11] = protein concentration 0.357143 µM
[12] = protein concentration 0.00625 µM
[13] = protein concentration 0.0625 µM
[14] = protein concentration 0.03034 µM
[15] = protein concentration 0.3034 µM
[16] = protein concentration 0.00771429 µM
[17] = protein concentration 0.0771429 µM
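Note: secreted proteins added to cultured cells, EdU pulse at the end, nuclei found by Hoechst imaging, EdU status from nuclear versus surrounding ring intensity ratio, PBS as neutral control.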

MSILFYVIFLAYLRGIQGNNMDQRSLPEDSLNSLIIKLIQADILKNKLSKQMVDVKENYQSTLPKAEAPREPERGGPAKSAFQPVIAMDTELLRQQRRYNSPRVLLSDSTPLEPPPLYLMEDYVGSPVVANRTSRRKRYAEHKSHRGEYSVCDSESLWVTDKSSAIDIRGHQVTVLGEIKTGNSPVKQYFYETRCKEARPVKNGCRGIDDKHWNSQCKTSQTYVRALTSENNKLVGWRWIRIDTSCVCALSRKIGRT
percentage of EdU-negative [1, 3]: 4.75 ± 0.28% | percentage of EdU-negative [1, 4]: 6.72 ± 0.33% | percentage of EdU-negative [2, 3]: 25.37 ± 0.049% | percentage of EdU-negative [2, 4]: 27.3 ± 1.8%

MKSGLWYFFLFCLRIKVLTGEINGSANYEMFIFHNGGVQILCKYPDIVQQFKMQLLKGGQILCDLTKTKGSGNTVSIKSLKFCHSQLSNNSVSFFLYNLDHSHANYYFCNLSIFDPPPFKVTLTGGYLHIYESQLCCQLKFWLPIGCAAFVVVCILGCILICWLTKKKYSSSVHDPNGEYMFMRAVNTAKKSRLTDVTL [Q9Y6W8]
percentage of EdU-negative [1, 5]: 4.29 ± 0.34% | percentage of EdU-negative [1, 6]: 4.32 ± 0.26% | percentage of EdU-negative [2, 5]: 25.2 ± 1.7% | percentage of EdU-negative [2, 6]: 25.9 ± 0.78%

MAFLGLFSLLVLQSMATGATFPEEAIADLSVNMYNRLRATGEDENILFSPLSIALAMGMMELGAQGSTQKEIRHSMGYDSLKNGEEFSFLKEFSNMVTAKESQYVMKIANSLFVQNGFHVNEEFLQMMKKYFNAAVNHVDFSQNVAVANYINKWVENNTNNLVKDLVSPRDFDAATYLALINAVYFKGNWKSQFRPENTRTFSFTKDDESEVQIPMMYQQGEFYYGEFSDGSNEAGGIYQVLEIPYEGDEISMMLVLSRQEVPLATLEPLVKAQLVEEWANSVKKQKVEVYLPRFTVEQEIDLKDVLKALGITEIFIKDANLTGLSDNKEIFLSKAIHKSFLEVNEEGSEAAAVSGMIAISRMAVLYPQVIVDHPFFFLIRNRRTGTILFMGRVMHPETMNTSGHDFEEL
percentage of EdU-negative [1, 7]: 4.97 ± 0.78% | percentage of EdU-negative [1, 8]: 49.1 ± 2.1% | percentage of EdU-negative [2, 7]: 22.8 ± 1.4% | percentage of EdU-negative [2, 8]: 27.7 ± 2.1%

MRKMNTLLLVSLSFLYLKEVMGLKCNTCIYTEGWKCMAGRGTCIAKENELCSTTAYFRGDKHMYSTHMCKYKCREEESSKRGLLRVTLCCDRNFCNVF [P0C8F1]
percentage of EdU-negative [1, 9]: 4.34 ± 0.4% | percentage of EdU-negative ([1]; protein concentration 0.225 µM): 7.87 ± 1.3% | percentage of EdU-negative [2, 9]: 24.7 ± 1.3% | percentage of EdU-negative ([2]; protein concentration 0.225 µM): 27.4 ± 0.56%

MERLVIRMPFSHLSTYSLVWVMAAVVLCTAQVQVVTQDEREQLYTPASLKCSLQNAQEALIVTWQKKKAVSPENMVTFSENHGVVIQPAYKDKINITQLGLQNSTITFWNITLEDEGCYMCLFNTFGFGKISGTACLTVYVQPIVSLHYKFSEDHLNITCSATARPAPMVFWKVPRSGIENSTVTLSHPNGTTSVTSILHIKDPKNQVGKEVICQVLHLGTVTDFKQTVNKGYWFSVPLLLSIVSLVILLVLISILLYWKRHRNQDRGELSQGVQKMT
percentage of EdU-negative [1, 10]: 5.34 ± 1.2% | percentage of EdU-negative [1, 11]: 5.8 ± 1% | percentage of EdU-negative [2, 10]: 23.6 ± 3.9% | percentage of EdU-negative [2, 11]: 23.5 ± 1%

MKVWLLLGLLLVHEALEDVTGQHLPKNKRPKEPGENRIKPTNKKVKPKIPKMKDRDSANSAPKTQSIMMQVLDKGRFQKPAATLSLLAGQTVELRCKGSRIGWSYPAYLDTFKDSRLSVKQNERYGQLTLVNSTSADTGEFSCWVQLCSGYICRKDEAKTGSTYIFFTEKGELFVPSPSYFDVVYLNPDRQAVVPCRVTVLSAKVTLHREFPAKEIPANGTDIVYDMKRGFVYLQPHSEHQGVVYCRAEAGGRSQISVKYQLLYVAVPSGPPSTTILASSNKVKSGDDISVLCTVLGEPDVEVEFTWIFPGQKDERPVTIQDTWRLIHRGLGHTTRISQSVITVEDFETIDAGYYICTAQNLQGQTTVATTVEFS
percentage of EdU-negative [1, 12]: 4.49 ± 0.2% | percentage of EdU-negative [1, 13]: 5.36 ± 0.45% | percentage of EdU-negative [2, 12]: 27.9 ± 0.57% | percentage of EdU-negative [2, 13]: 29.4 ± 1%

MQGAQEASASEMLPLLLPLLWAGALAQERRFQLEGPESLTVQEGLCVLVPCRLPTTLPASYYGYGYWFLEGADVPVATNDPDEEVQEETRGRFHLLWDPRRKNCSLSIRDARRRDNAAYFFRLKSKWMKYGYTSSKLSVRVMALTHRPNISIPGTLESGHPSNLTCSVPWVCEQGTPPIFSWMSAAPTSLGPRTTQSSVLTITPRPQDHSTNLTCQVTFPGAGVTMERTIQLNVSYAPQKVAISIFQGNSAAFKILQNTSSLPVLEGQALRLLCDADGNPPAHLSWFQGFPALNATPISNTGVLELPQVGSAEEGDFTCRAQHPLGSLQISLSLFVHWKPEGRAGGVLGAVWGASITTLVFLCVCFIFRVKTRRKKAAQPVQNTDDVNPVMVSGSRGHQHQFQTGIVSDHPAEAGPISEDEQELHYAVLHFHKVQPQEPKVTDTEYSEIKIHK
percentage of EdU-negative [1, 14]: 5.1074 ± 0.0018% | percentage of EdU-negative [1, 15]: 5.306 ± 0.046% | percentage of EdU-negative [2, 14]: 22.4 ± 2.3% | percentage of EdU-negative [2, 15]: 27.1 ± 0.29%

MWPLTVPPPLLLLLCSGLAGQTLFQNPEEGWQLYTSAQAPDGKCICTAVIPAQSTCSRDGRSRELRQLMEKVQNVSQSMEVLELRTYRDLQYVRGMETLMRSLDARLRAADGSLSAKSFQELKDRMTELLPLSSVLEQYKADTRTIVRLREEVRNLSGSLAAIQEEMGAYGYEDLQQRVMALEARLHACAQKLGCGKLTGVSNPITVRAMGSRFGSWMTDTMAPSADSRVWYMDGYYKGRRVLEFRTLGDFIKGQNFIQHLLPQPWAGTGHVVYNGSLFYNKYQSNVVVKYHFRSRSVLVQRSLPGAGYNNTFPYSWGGFSDMDFMVDESGLWAVYTTNQNAGNIVVSRLDPHTLEVMRSWDTGYPKRSAGEAFMICGVLYVTNSHLAGAKVYFAYFTNTSSYEYTDVPFHNQYSHISMLDYNPRERALYTWNNGHQVLYNVTLFHVISTSGDP
percentage of EdU-negative [1, 16]: 4.89 ± 0.63% | percentage of EdU-negative [1, 17]: 5.22 ± 0.46% | percentage of EdU-negative [2, 16]: 24.6 ± 2.2% | percentage of EdU-negative [2, 17]: 29 ± 4.7%

MAGRLLGKALAAVSLSLALASVTIRSSRCRGIQAFRNSFSSSWFHLNTNVMSGSNGSKENSHNKARTSPYPGSKVERSQVPNEKVGWLVEWQDYKPVEYTAVSVLAGPRWADPQISESNFSPKFNEKDGHVERKSKNGLYEIENGRPRNPAGRTGLVGRGLLGRWGPNHAADPIITRWKRDSSGNKIMHPVSGKHILQFVAIKRKDCGEWAIPGGMVDPGEKISATLKREFGEEALNSLQKTSAEKREIEEKLHKLFSQDHLVIYKGYVDDPRNTDNAWMETEAVNYHDETGEIMDNLMLEAGDDAGKVKWVDINDKLKLYASHSQFIKLVAEKRDAHWSEDSEADCHAL [Q9BW91]
percentage of EdU-negative [1, 9]: 4.99 ± 0.81% | percentage of EdU-negative ([1]; protein concentration 0.225 µM): 5.67 ± 0.54% | percentage of EdU-negative [2, 9]: 26.4 ± 1.5% | percentage of EdU-negative ([2]; protein concentration 0.225 µM): 26.1 ± 0.32%

MQIITTALVCLLLAGMWPEDVDSKSMQVPFSRCCFSFAEQEIPLRAILCYRNTSSICSNEGLIFKLKRGKEACALDTVGWVQRHRKMLRHCPSKRK
percentage of EdU-negative [1, 9]: 4.79 ± 0.52% | percentage of EdU-negative ([1]; protein concentration 0.225 µM): 12 ± 1.1% | percentage of EdU-negative [2, 9]: 24.1 ± 3.4% | percentage of EdU-negative ([2]; protein concentration 0.225 µM): 25.4 ± 0.28%

MKENVASATVFTLLLFLNTCLLNGQLPPGKPEIFKCRSPNKETFTCWWRPGTDGGLPTNYSLTYHREGETLMHECPDYITGGPNSCHFGKQYTSMWRTYIMMVNATNQMGSSFSDELYVDVTYIVQPDPPLELAVEVKQPEDRKPYLWIKWSPPTLIDLKTGWFTLLYEIRLKPEKAAEWEIHFAGQQTEFKILSLHPGQKYLVQVRCKPDHGYWSAWSPATFIQIPSDFTMNDTTVWISVAVLSAVICLIIVWAVALKGYSMVTCIFPPVPGPKIKGFDAHLLEKGKSEELLSALGCQDFPPTSDYEDLLVEYLEVDDSEDQHLMSVHSKEHPSQGMKPTYLDPDTDSGRGSCDSPSLLSEKCEEPQANPSTFYDPEVIEKPENPETTHTWDPQCISMEGKIPYFHAGGSKCSTWPLPQPSQHNPRSSYHNITDVCELAVGPAGAPATLLNEAGKDALKSSQTIKSREEGKATQQREVESFHSETDQDTPWLLPQEKTPFGSAKPLDYVEIHKVNKDGALSLLPKQRENSGKPKKPGTPENNKEYAKVSGVMDNNILVLVPDPHAKNVACFEESAKEAPPSLEQNQAEKALANFTATSSKCRLQLGGLDYLDPACFTHSFH
percentage of EdU-negative [1, 5]: 4.8 ± 0.32% | percentage of EdU-negative [1, 6]: 5.37 ± 0.74% | percentage of EdU-negative [2, 5]: 26.2 ± 3.5% | percentage of EdU-negative [2, 6]: 26.4 ± 0.51%

MAASRWARKAVVLLCASDLLLLLLLLPPPGSCAAEGSPGTPDESTPPPRKKKKDIRDYNDADMARLLEQWEKDDDIEEGDLPEHKRPSAPVDFSKIDPSKPESILKMTKKGKTLMMFVTVSGSPTEKETEEITSLWQGSLFNANYDVQRFIVGSDRAIFMLRDGSYAWEIKDFLVGQDRCADVTLEGQVYPGKGGGSKEKNKTKQDKGKKKKEGDLKSRSSKEENRAGNKREDL
percentage of EdU-negative [1, 9]: 5.03 ± 0.66% | percentage of EdU-negative ([1]; protein concentration 0.225 µM): 11 ± 0.91% | percentage of EdU-negative [2, 9]: 27.3 ± 3.2% | percentage of EdU-negative ([2]; protein concentration 0.225 µM): 27.3 ± 1%

MTSSLLLAFLLLAPTTVATPRAGGQCPACGGPTLELESQRELLLDLAKRSILDKLHLTQRPTLNRPVSRAALRTALQHLHGVPQGALLEDNREQECEIISFAETGLSTINQTRLDFHFSSDRTAGDREVQQASLMFFVQLPSNTTWTLKVRVLVLGPHNTNLTLATQYLLEVDASGWHQLPLGPEAQAACSQGHLTLELVLEGQVAQSSVILGGAAHRPFVAARVRVGGKHQIHRRGIDCQGGSRMCCRQEFFVDFREIGWHDWIIQPEGYAMNFCIGQCPLHIAGMPGIAASFHTAVLNLLKANTAAGTTGGGSCCVPTARRPLSLLYYDRDSNIVKTDIPDMVVEACGCS
percentage of EdU-negative [1, 5]: 4.58 ± 0.61% | percentage of EdU-negative [1, 6]: 5.17 ± 0.32% | percentage of EdU-negative [2, 5]: 25.8 ± 2.3% | percentage of EdU-negative [2, 6]: 27.7 ± 2.4%

MSRGLQLLLLSCAYSLAPATPEVKVACSEDVDLPCTAPWDPQVPYTVSWVKLLEGGEERMETPQEDHLRGQHYHQKGQNGSFDAPNERPYSLKIRNTTSCNSGTYRCTLQDPDGQRNLSGKVILRVTGCPAQRKEETFKKYRAEIVLLLALVIFYLTLIIFTCKFARLQSIFPDFSKAGMERAFLPVTSPNKHLGLVTPHKTELV
percentage of EdU-negative [1, 9]: 4.68 ± 0.067% | percentage of EdU-negative ([1]; protein concentration 0.225 µM): 8.57 ± 0.3% | percentage of EdU-negative [2, 9]: 25.6 ± 5.2% | percentage of EdU-negative ([2]; protein concentration 0.225 µM): 25.7 ± 2.3%
